This sample holds only a part of the variants without activity.
B1: TPR 5TU (parent)
chain: GGAUCUUCUCGAUCUAACAAAAAAGACAAAUCUGCCACAAAGCUUGAGAGCAUCUUCGGAUGCAGAGGCGGCAGCCUUCGGUGGCGCGAUAGCGCCAACGUUCUCAACUAUGACACGCAAAACGCGUGCUCCGUUGAAUGGAGUUUAUCAUG

Variants of: B1
Assay: polymerase ribozyme fitness, log enrichment relative to wild type (log ratio); higher = more active; in vitro selection for triplet polymerase activity
Outline: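 Streptavidin-bead capture of gel-excised extended constructs, followed by RT-PCR, closed a single triplicate in vitro selection round. That round began by annealing PCR-built, transcribed mutant libraries of each subunit of a heterodimeric triplet polymerase ribozyme with a biotinylated primer, the partner subunit and triplets, then incubating them frozen at −7 °C. After Illumina sequencing of inputs and outputs, genotypes needed ≥10 input reads and ≥1 read per output. Fitness is the base-2 logarithm of genotype enrichment over wild-type enrichment, using inverse-variance-weighted replicate averages.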

C38U A60C C85U C118U G136A and C38G G80C C99G C116U are within 0.2 log units of each other in “polymerase ribozyme fitness (log ratio)” value: -0.726 for the first, -0.78 for the second.

Going from C38G A40G A49G A60U C93A A121G to C38A U56A G86C, the “polymerase ribozyme fitness (log ratio)” value rises from ≤ -4.2 to -3.01.

Compared with C38U A39C A60U, C38A G84A U148G is lower in “polymerase ribozyme fitness (log ratio)” value: -3.28 for the first, ≤ -4.2 for the second.

First: C38G U56A G94A A121G
Second: C38G G71A U82G A107U
The “polymerase ribozyme fitness (log ratio)” value of the first is higher: -1.64 for the first, ≤ -4.2 for the second.

First: C38U A52C A60G A119G
Second: C38A A73C C75G A120C
The “polymerase ribozyme fitness (log ratio)” value of the first is higher: 0.129 for the first, ≤ -4.2 for the second.

Going from A37U A98G to C38A U55A, the “polymerase ribozyme fitness (log ratio)” value rises from -1.34 to -0.143.

C38G C43U C87A C132G U135G G136C U146A and C38U A49C C85U G92U C103A U111C U144C cannot be ordered by “polymerase ribozyme fitness (log ratio)” value: ≤ -4.2 for the first, ≤ -4.2 for the second.

First: C38G A40U U55A U56A C87U A89C
Second: C38G C54G U82C U146A
The “polymerase ribozyme fitness (log ratio)” value of the first is lower: -3.99 for the first, -1.88 for the second.

Compared with C38G A52G G62A U135G, C38U A73G C87U is higher in “polymerase ribozyme fitness (log ratio)” value: ≤ -4.2 for the first, 0.139 for the second.

Compared with C38G G141A, C38U A52G G92A G124U is lower in “polymerase ribozyme fitness (log ratio)” value: -0.0444 for the first, -3.84 for the second.

Going from C38U A49C to A37U C95G, the “polymerase ribozyme fitness (log ratio)” value rises from ≤ -4.2 to -3.51.

First: C38A A73G C79A C114G G124U G140U U148G
Second: C38A U145C
The “polymerase ribozyme fitness (log ratio)” value of the first is lower: ≤ -4.2 for the first, -0.328 for the second.

C38A C76U A110G A113G G152A and C38A C76A G92U G136A G152U cannot be ordered by “polymerase ribozyme fitness (log ratio)” value: ≤ -4.2 for the first, ≤ -4.2 for the second.

C38U A49U U61G G83U G133C A142C and A37U A52G C76A C96U C131G cannot be ordered by “polymerase ribozyme fitness (log ratio)” value: ≤ -4.2 for the first, ≤ -4.2 for the second.

C38A U56G G136C U146C and A37U G88U G92C A122G G133U G143A A150U are within 0.2 log units of each other in “polymerase ribozyme fitness (log ratio)” value: -3.92 for the first, -4.06 for the second.

Compared with C38A C96U C99U, A37U C54A C57A C93U is lower in “polymerase ribozyme fitness (log ratio)” value: -0.43 for the first, -3.28 for the second.

Going from A37U A64U to C38U A73U, the “polymerase ribozyme fitness (log ratio)” value rises from ≤ -4.2 to 0.0337.

First: C38A U55G A60G
Second: C38G U56A C93U U104G A122C
The “polymerase ribozyme fitness (log ratio)” value of the first is higher: 0.135 for the first, -2.96 for the second.

A37U C103A and C38A U53A A60U C93G C131A G141C are within 0.2 log units of each other in “polymerase ribozyme fitness (log ratio)” value: -3.85 for the first, -3.94 for the second.

C38A A89C C93G C95G C108U U135C and C38A C54A C63U G70U C75U C87A cannot be ordered by “polymerase ribozyme fitness (log ratio)” value: ≤ -4.2 for the first, ≤ -4.2 for the second.

C38G G42C U61G G86U and C38U A47C A64C U78G G84C A97C C108U cannot be ordered by “polymerase ribozyme fitness (log ratio)” value: ≤ -4.2 for the first, ≤ -4.2 for the second.

Going from C38A C85G G86U to C38A C95A C118A, the “polymerase ribozyme fitness (log ratio)” value rises from ≤ -4.2 to -1.55.

Compared with C38A A122U A137G G141U A142G, C38A C43G C105G C116U is lower in “polymerase ribozyme fitness (log ratio)” value: -3.83 for the first, ≤ -4.2 for the second.

First: A37U U55A G58C A142U
Second: C38G A40G G83A
The “polymerase ribozyme fitness (log ratio)” value of the first is higher: -2.45 for the first, -3.86 for the second.

Compared with A37U G58C A97G C132U, C38U A40C G80U C95U is higher in “polymerase ribozyme fitness (log ratio)” value: -2.67 for the first, -1.06 for the second.

A37U A52G G83A G84A A115U and A37U U61A A89C C96A A98C U104A cannot be ordered by “polymerase ribozyme fitness (log ratio)” value: ≤ -4.2 for the first, ≤ -4.2 for the second.

Going from C38U A40U C116U U135A to A37U U56C C69U, the “polymerase ribozyme fitness (log ratio)” value falls from 0.399 to -2.76.

Going from A37U C87U to C38U A60C U61A C76U C87G C93A G136A G141A, the “polymerase ribozyme fitness (log ratio)” value falls from -0.99 to ≤ -4.2.

First: A37U C38G A97C
Second: C38A U56A G74C G92U U109G
The “polymerase ribozyme fitness (log ratio)” value of the first is higher: -1.69 for the first, ≤ -4.2 for the second.

A37U G83C A91C A98G G124U and C38A C93G C96U A115G G117A cannot be ordered by “polymerase ribozyme fitness (log ratio)” value: ≤ -4.2 for the first, ≤ -4.2 for the second.

Going from C38A G58C C87U to A37U C96U G126U, the “polymerase ribozyme fitness (log ratio)” value falls from -0.072 to -2.91.

A37U G58U C96U C118G U146C and A37U U61A C85U are within 0.2 log units of each other in “polymerase ribozyme fitness (log ratio)” value: -3.08 for the first, -2.89 for the second.

First: C38G C54U C57U G141C
Second: A37U C54U C93U
The “polymerase ribozyme fitness (log ratio)” value of the first is lower: -2.86 for the first, -2.44 for the second.

First: C38G A142C
Second: C38U A73G G83U A91U A97U A110G
The “polymerase ribozyme fitness (log ratio)” value of the first is higher: -1.24 for the first, ≤ -4.2 for the second.

Compared with C38A C93G C123G, C38A G86C is higher in “polymerase ribozyme fitness (log ratio)” value: -3.67 for the first, -3.27 for the second.

First: A37U C51G G88A
Second: A37U G58A G59C A121U
The “polymerase ribozyme fitness (log ratio)” value of the first is lower: ≤ -4.2 for the first, -0.167 for the second.

First: C38G A60G C76G G81A G84U U102G C116U G128A
Second: A37U C51U G92U
The “polymerase ribozyme fitness (log ratio)” value of the first is lower: ≤ -4.2 for the first, -2.25 for the second.

First: C38A C87U A98G A106C C125A U135A C149A
Second: C38A A41U A52C
The “polymerase ribozyme fitness (log ratio)” value of the first is lower: ≤ -4.2 for the first, -2.5 for the second.

Compared with A37U A73G, C38A C93A is lower in “polymerase ribozyme fitness (log ratio)” value: -1.1 for the first, -2.59 for the second.

C38U A66G U82A C96U C125A U145A and C38U A60C U77G C87U G94A U101A C105A cannot be ordered by “polymerase ribozyme fitness (log ratio)” value: ≤ -4.2 for the first, ≤ -4.2 for the second.

A37U G59C C149G and A37U G68U C118A cannot be ordered by “polymerase ribozyme fitness (log ratio)” value: ≤ -4.2 for the first, ≤ -4.2 for the second.

Going from C38A C54U A73U to C38A A47C C96A, the “polymerase ribozyme fitness (log ratio)” value rises from -2.15 to -1.63.

Reference: the RNAGym collection of RNA variant scans (doi:10.1073/pnas.2313332121)
